Measured values as given in PMC10720262 (2023).

B1: CL-508731 (antibody, V domains shown)
VH: QVQLVESGGGVVQPGRSLRLSCVASGFTFSNNGMHWVRQAPGKGLEWVAIIWHDGSNKFYAESVRGRFTISRDNSNNTLYLQMNSLRAEDTAVYYCARDRMFGSGSWNYFDPWGQGTLVTVSS
VL: EIVLTQSPATLSLSPGERATLSCRASQSISTYLAWYQQKPGQAPRLLIYDASNRATGIPARFSGSGSGTDFTLTISSLEPEDFAVYYCQQRSYWWTFGQGTKVEIK
modifications: peptides N-terminally acetylated and C-terminally amidated
B2: CL-509993 (antibody, V domains shown)
VH: QVQLVESGGGVVQPGRSLRLSCVASGFTFSNNGMHWVRQAPGKGLEWVAIIWYDGSNKYYADSVKGRFTISRDNSNNTLYLQMNSLRAEDTAVYYCARDRMFGSGTWNYFDPWGQGTLVTVSS
VL: EIVLTQSPATLSLSPGERATLSCRASQSVTTYLAWYQQKPGQAPRLLIYDASNRATGIPARFSGSGSGTDFTLTISSLEPEDFAVYYCQQRSNWWTFGQGTKVEIK
modifications: peptides N-terminally acetylated and C-terminally amidated
B3: CL-511905 (antibody, V domains shown)
VH: QVQLVESGGGVVQPGRSLRLSCAASGFTFSGSGMHWVRQAPGRGLEWVAIIWYDGSHKYYVDSVQGRFIISRDNSKNTLYLEMNSLRVEDTAVYYCVRAYPSGSSNDKYGMDVWGQGTTVTVSS
VL: not shown
modifications: peptides N-terminally acetylated and C-terminally amidated
B4: CL-513094 (antibody, V domains shown)
VH: QVQLVESGGGVVQPGRSLRLSCAASGFTFSGSGMHWVRQAPGRGLEWVAIIWYDGSHKYYVDSVQGRFIISRDNSKNTLYLEMNNLRVEDTAVYYCVRAYPSGSSNDKYGMDVWGQGTTVTVSS
VL: not shown
modifications: peptides N-terminally acetylated and C-terminally amidated
B5: Ky315 (antibody, V domains shown)
VH: QVQLVESGGGVVQPGRSLRLSCAASGFTLSNYGVHWVRQAPGTGLEWVALIWYDGSNKFYADSVKGRFTISRDNSMDIVYLQMNNLRAEDTALYYCVRPGIAAAGSNYYAMDVWGQGTAVTVSS
VL: EIVMTQSPATLSMSPGERATLSCRASQSVGSDLAWFQQKPGQAPRLLIYGAFTRATGIPARFSGSGSGSEFTLTISSLQSEDFAVYYCQQYNRWWTFGQGTKVEMK
modifications: peptides N-terminally acetylated and C-terminally amidated
B6: CL-437899 (antibody, V domains shown)
VH: QEQLVESGGGVVQPGRSLRLSCEVSGFTFSNHGLHWVRQAPGKGLEWVAIIWYDGSNKFYAESVKGRFTISRDNSKNRMYLEMNSLRVEDSAVYYCVRAYSRSSSDYKYGMDVWGQGTTVTVSS
VL: DIQMTQSPSTLSASVGDRVIITCRASQSISSWLAWYQQRPGKAPELLIYKASSLETGVPSRFSGSGSGTEFTLTISSLQPDDFATYFCQQYSSYWTFGQGTKVEIK
modifications: peptides N-terminally acetylated and C-terminally amidated
B7: Ky224 (antibody, V domains shown)
VH: QVQLVESGGGVVQPGRSLRLSCAASGFTFSVYGMHWVRQAPGKGLEWVAVIWYDGSNKIYADSVKGRFTISRDNSKNTLYLQMDSLSAADTAVYYCAKIGSSSFDYWGQGTLVIVSS
VL: DIVMTQTPLSSPVTLGQPASISCRSSQSLVHSNGITYLSWLQQRPGQPPRLLLYEISNRFSGVPDRFSGSGTGTDFTLKISRVEAEDVGVYYCMQTTQFPITFGQGTRLEIK
modifications: peptides N-terminally acetylated and C-terminally amidated
B8: CL-509930 (antibody, V domains shown)
VH: QVQLVESGGGVVQPGRSLRLSCAASGFTFSSYGMHWVRQAPGKGLEWVAIIWHDGSNKYYADSVKGRFTISRDNSKNTLYLQMNSLRAEDTAVYYCARDYSSFYFDYWGQGTLVTVSS
VL: not shown
modifications: peptides N-terminally acetylated and C-terminally amidated
B9: CL-513083 (antibody, V domains shown)
VH: QVQLVESGGGVVQPGRSLRLSCAASGFTFSNYGMHWVRQAPGRGLEWVAIIWYDGSNKYYEDSVKGRFTISRDNSKNTLYLQMNSLRAEDTAVYYCARAQWLDQRHYHYTMDVWGQGTTVTVSS
VL: not shown
modifications: peptides N-terminally acetylated and C-terminally amidated
B10: CL-512871 (antibody, V domains shown)
VH: QVLLVESGGGVVQPGRSLRLSCAASGFTFSNYGMHWVRQAPGKGLEWVALIRYDGINKFYADSVKGRFTISRDNSENTLYMQINSLRAEDTAMYYCAKAYNTSSDYYYGMDVWGQGTTVTVSS
VL: DIQMTQSPSTLSASVGDRVTITCRASQSISTWLAWYQQKPGKAPKLLIYKASRLESGVPSRFSGSGSGTEFTLTISSLQPDDLATYYCQQFNSYWTFGQGTKVEIR
modifications: peptides N-terminally acetylated and C-terminally amidated
B11: CL-444469 (antibody, V domains shown)
VH: QVQLVESGGGVVQPGRSLRVSCEVSGLTFSNYGMHWVRQAPGKRLEWVAIIWYDGSNKYYADSVKGRFTISRDNSKNTLYLQMNSLRAEDTAVYYCARSYGSGSRGDYYGMDVWGQGTTVTVSS
VL: DIQMTQSPSTLSASVGDRVTITCRASQSISSWLAWFQQKPGKAPKLLIYKASSLESGVPSRFSGSGSGTEFTLTISSLQPDDFATYYCQQYYSYWTFGQGTKVEIK
modifications: peptides N-terminally acetylated and C-terminally amidated
B12: CL-449869 (antibody, V domains shown)
VH: QVQLVESGGGAVQPGRSLRLSCAASGFTFSYNGMHWVRQAPGKGLEWVAIIWYDGSNKFYADSVKGRFTISRDNSKDTLYLEMNSLRAEDTAIYYCARAWNYDDKKYSMDVWGQGTTVTVSS
VL: DIQMTQSPSTLSASVGDRVTITCRASQSISSWLAWYQQKPGKAPKLLIYKASSLESGVPSRFSGSGSGTEFTLTISSLQPDDFATYYCQQYNYFWTFGQGTKVEIR
modifications: peptides N-terminally acetylated and C-terminally amidated
B13: CL-438096 (antibody, V domains shown)
VH: QVVLVESGGGVVQPGRSLRLSCEASGFIFSSRGMHWVRQTPGKGLEWVAIIWYDGSNKFYADSVKGRFTISRDNSKNTLYLQMNSLRAEDTAVYYCARSYRTSLDKKYGMDVWGQGTTVTVSS
VL: DIQMTQSPSTLSASVGDRVTITCRASQSISSWLAWYQQKPGKAPKLLIYKASSLESGVPSRFSGSGSGTEFTLTISSLHPDDFATYFCQQYNSYWTFGQGTKVEIK
modifications: peptides N-terminally acetylated and C-terminally amidated
B14: CL-444691 (antibody, V domains shown)
VH: QVQLVESGGGVVQPGRSLRLSCAASGFTFSNYGMHWVRQAPGKGLEWVAVIWYDGSNKFYADSVKGRFTISRDNSKNTLYLQMNSLRAEDTAVYYCARDGGYNKNSGSYGWFDPWGQGTLVTVSS
VL: DIQMTQSPSTLSASVGDRVTITCRASQSVSTWLAWYQQKPGKAPKLLIYKASSLESGVPSRFSGSGSGTEFTLTISSLQPDDFATYYCQQYNSYFTFGQGTRLEIK
modifications: peptides N-terminally acetylated and C-terminally amidated
B15: CL-532151 (antibody, V domains shown)
VH: QVQLVESGGGVVQPGGSLRLSCAASGFTFSGSGMHWVRHAPGKGLEWVAIIWYDGSNKFYADSVKGRFTISRDNSRNTLYLQMNSLRAEDTAVYYCARAYVSGNYGDKYGMDVWGQGTTVTVSS
VL: DIQMTQSPSTLSASVGDRVTITCRASQSISNWLAWFQQKPGKAPKLLIYKASSLESGVPSRFSGSGSGTEFTLTINSLQPDDFATYFCQQYNYYWTFGQGTKVEIK
modifications: peptides N-terminally acetylated and C-terminally amidated
B16: CL-510418 (antibody, V domains shown)
VH: QVQLVESGGGVVQPGQSLRLSCEASGFTFSNYGMHWVRQAPVKGLEWVAIIWFDGSYKYYADSVKGRFTVSRDNSKNTLYLQMDSLRAEDTAVYYCARARKGQRSDYYGSETSYTFDNWGQGTLVTVSS
VL: DIQMTQSPSTLSASVGDRVTITCRASQSINSWLAWYQQKPGKAPKFLIYKASILESGIPSRFSGSGSGTEFTLTISSLQPDDFATYYCQQYNSYWTFGQGTKVEIK
modifications: peptides N-terminally acetylated and C-terminally amidated
B17: CL-460406 (antibody, V domains shown)
VH: QIQLVESGGGVVQPGRSLRLSCAASGFTFSNSGMHWIRQAPGKGLEWVTIIWYDGSNKYYADSVKGRFTISRDNSKNTLYLQMNSLRAEDTAIYYCARAYSSSSDDYYGMDVWGQGTTVTVSS
VL: DIQMTQSPSTLSASVGDRVTITCRASQSISSWLAWYQQKPGKAPKLLIYKASSLESGVPSRFSGSGSGTDFTLTISSLQPDDFATYYCQQFYNYWTFGQGTKVEIT
modifications: peptides N-terminally acetylated and C-terminally amidated
B18: CL-449007 (antibody, V domains shown)
VH: QVQVVESGGGVVQPGRSLRLSCAASGFTFSNYGMHWVRQAPGKGLEWVAIIWYDGSHKFYANSVKGRFTISRDNSKNTLFLQMNSLRAEDTAVYYCARVGNGNSDWTDAFDIWGQGTMVTVSS
VL: DIQMTQSPSTLSASVGDRVTITCRASQSINSWLAWYQQKPGKAPKLLIYKASSLESGVPSRFSGSGSGTEFTLTISSLQPDDFATYYCQQYNTYWTFGQGTKVEIK
modifications: peptides N-terminally acetylated and C-terminally amidated
B19: Ky15.2 (antibody, V domains shown)
VH: QVLLVESGGGVVQPGTSLRLSCVASGFSFSTYGMHWVRQSPGKGLEWVAIIWYDGGNKFYADSVQGRFTVSRDNSKNTLYLQMNSLRAEDTAVYYCAKAYRTSLDKKYGMDVWGQGTTVTVSS
VL: DIQMTQSPSTLSASVGDRVTITCRASQSIASWLAWYQQKPGKAPKLLIYKASSLESGVPSRFSGSGSGTEFTLTISSLHPDDFATYFCQQFTSYWTFGQGTKVEIK
modifications: peptides N-terminally acetylated and C-terminally amidated
B20: CL-510020 (antibody, V domains shown)
VH: QVQLVESGGGVVQPGRSLRLSCAASGFTFSSFGMYWVRQAPGKGLEWVALIWYDGSNQYYADSVKGRFTISRDNSKNTLYLQMNSLRAEDTAVYYCARAGYFYGSGSPLDYWGQGTLVTVPS
VL: DIQMTQSPSTLSASVGDGVTITCRASQSISSWLAWYQQKPGKAPKLLIYMASSLESGVPSRFSGSGSGTEFTLTISSLQPDDFATYYCQQYYNYWTFGQGTKVEIK
modifications: peptides N-terminally acetylated and C-terminally amidated
B21: CL-514174 (antibody, V domains shown)
VH: QVQLVESGGGVVQPGRSLRLSCVASGFTFSGSGMHWVRQSPGKGLEWVAIIWYDGSNKFYADSVQGRFTISRDNSKNTLYLQMNSLRVEDTGVYYCARAYLSGNYGDKYGMDVWGQGTTVTVSS
VL: DIQMTQSPSTLSASVGDRVTITCRASQSISSWLAWFQQKPGKAPKLLIYKASSLESGVPSRFSGSGSGTEFTLTINSLQPDDFATYFCQQYNYYWTFGQGTKVEIK
modifications: peptides N-terminally acetylated and C-terminally amidated
B22: CL-513809 (antibody, V domains shown)
VH: QVQLVESGGGVVQPGRSLRLSCAASGFIFSNYGMYWVRQTPDKGLEWVALIWYDGNNKFYSDSVKGRFTVSRDNSKNTLYLQMNSLRDEDTALYYCARAGYFYGSGSSLDKWGQGTLVTVSS
VL: DIQMTQSPSTLSASVGDRVSITCRASQSISIWLAWYQQKPGKAPKLLIYKASSLESGVPSRFSGSGSGTEFTLTISSLQPDDFATYYCQQYNSYWTFGQGTKVEIK
modifications: peptides N-terminally acetylated and C-terminally amidated
B23: CL-510373 (antibody, V domains shown)
VH: QVQLVESGGGVVQPGRSLKLSCAASGFTFSSYGMHWVRQAPGRGLEWVSIIWYDGSNKFYSDSVQGRFTISRDDSKNTLYLQMNSLRAEDTAMYYCAMVANYTISSGAFDIWGHGTMVTVSS
VL: DIQMTQSPSTLSASVGDRVTITCRASQSISNWLAWYQQKSGKAPKLLIYKASSLESGVPSRFSGSGSGTEFTLTISSLQPDDFATYFCQQYKTYWTFGQGTKVEIK
modifications: peptides N-terminally acetylated and C-terminally amidated

Target: PfCSP full length (Plasmodium falciparum (isolate NF54), UniProt P19597)
Assay: ELISA AUC

Chain of PfCSP full length (P19597 20-375): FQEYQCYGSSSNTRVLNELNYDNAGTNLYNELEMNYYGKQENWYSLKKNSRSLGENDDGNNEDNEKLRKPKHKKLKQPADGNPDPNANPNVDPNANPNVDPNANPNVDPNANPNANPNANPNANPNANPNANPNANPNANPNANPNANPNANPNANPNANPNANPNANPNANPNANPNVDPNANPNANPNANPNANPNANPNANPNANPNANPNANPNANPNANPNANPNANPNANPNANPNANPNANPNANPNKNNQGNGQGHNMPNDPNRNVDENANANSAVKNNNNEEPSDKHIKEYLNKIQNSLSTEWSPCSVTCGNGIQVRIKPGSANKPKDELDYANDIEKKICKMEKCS

| Binder | binding score |
| --- | --- |
| B1 | 2.31 |
| B2 | 2.15 |
| B3 | 2.61 |
| B4 | 2.14 |
| B5 | 2.7 |
| B6 | 2.4 |
| B7 | 2.2 |
| B8 | 1.99 |
| B9 | 2.24 |
| B10 | 2.21 |
| B11 | 2.4 |
| B12 | 2.2 |
| B13 | 2.6 |
| B14 | 2.3 |
| B15 | 2.53 |
| B16 | 2.46 |
| B17 | 2.3 |
| B18 | 2.4 |
| B19 | 2.4 |
| B20 | 2.45 |
| B21 | 2.12 |
| B22 | 2.34 |
| B23 | 2.37 |
